Earlier results as cited in patent US6759384B1, “Factor Xa inhibitors” (Aventis Pharmaceuticals Inc., priority 1994, dated 2004).

Molecular target: factor Xa
Details: background section

B1: ATS: antistasin, protein inhibitor of factor Xa isolated from the leech Haementerin officinalis, 119 amino acids (protein, UniProt P15358 18-136, looked up)
Antistasin: QGPFGPGCEEAGCPEGSACNIITDRCTCSGVRCRMHCPHGFQRSRYGCEFCKCRLEPMKATCDISECPEGMMCSRLTNKCDCKIDINCRKTCPNGLKRDKLGCEYCECRPKRKLIPRLS
Ki: 0.05 nM
